Results: IntAct's records for PubMed 31515488

B1: Myogenin (Homo sapiens), P15173 (parent)
chain: MELYETSPYFYQEPRFYDGENYLPVHLQGFEPPGYERTELTLSPEAPGPLEDKGLGTPEHCPGQCLPWACKVCKRKSVSVDRRRAATLREKRRLKKVNEAFEALKRSTLLNPNQRLPKVEILRSAIQYIERLQALLSSLNQEERDLRYRGGGGPQPGVPSECSSHSASCSPEWGSALEFSANPGDHLLTADPTDAHNLHSLTSIVDSITVEDVSVAFPDETMPN
B2: BTB/POZ domain-containing protein KCTD6 (Homo sapiens), Q8NC69 (parent)
chain: MDNGDWGYMMTDPVTLNVGGHLYTTSLTTLTRYPDSMLGAMFGGDFPTARDPQGNYFIDRDGPLFRYVLNFLRTSELTLPLDFKEFDLLRKEADFYQIEPLIQCLNDPKPLYPMDTFEEVVELSSTRKLSKYSNPVAVIITQLTITTKVHSLLEGISNYFTKWNKHMMDTRDCQVSFTFGPCDYHQEVSLRVHLMEYITKQGFTIRNTRVHHMSERANENTVEHNWTFCRLARKTDD
B3: NADPH oxidase activator 1 (Homo sapiens), Q86UR1 (parent)
chain: MASLGDLVRAWHLGAQAVDRGDWARALHLFSGVPAPPARLCFNAGCVHLLAGDPEAALRAFDQAVTKDTCMAVGFFQRGVANFQLARFQEALSDFWLALEQLRGHAAIDYTQLGLRFKLQAWEVLHNVASAQCQLGLWTEAASSLREAMSKWPEGSLNGLDSALDQVQRRGSLPPRQVPRGEVFRPHRWHLKHLEPVDFLGKAKVVASAIPDDQGWGVRPQQPQGPGANHDARSLIMDSPRAGTHQGPLDAETEVGADRCTSTAYQEQRPQVEQVGKQAPLSPGLPAMGGPGPGPCEDPAGAGGAGAGGSEPLVTVTVQCAFTVALRARRGADLSSLRALLGQALPHQAQLGQLSYLAPGEDGHWVPIPEEESLQRAWQDAAACPRGLQLQCRGAGGRPVLYQVVAQHSYSAQGPEDLGFRQGDTVDVLCEVDQAWLEGHCDGRIGIFPKCFVVPAGPRMSGAPGRLPRSQQGDQP
B4: Eukaryotic translation initiation factor 4E-binding protein 2 (Homo sapiens), Q13542 (parent)
chain: MSSSAGSGHQPSQSRAIPTRTVAISDAAQLPHDYCTTPGGTLFSTTPGGTRIIYDRKFLLDRRNSPMAQTPPCHLPNIPGVTSPGTLIEDSKVEVNNLNNLNNHDRKHAVGDDAQFEMDI
B5: von Hippel-Lindau disease tumor suppressor (Homo sapiens), P40337-2 (parent)
chain: MPRRAENWDEAEVGAEEAGVEEYGPEEDGGEESGAEESGPEESGPEELGAEEEMEAGRPRPVLRSVNSREPSQVIFCNRSPRVVLPVWLNFDGEPQPYPTLPPGTGRRIHSYRVYTLKERCLQVVRSLVKPENYRRLDIVRSLYEDLEDHPNVQKDLERLTQERIAHQRMGD
B6: Isoform Long of Autophagy protein 5 (Homo sapiens), Q9H1Y0-1 (parent)
chain: MTDDKDVLRDVWFGRIPTCFTLYQDEITEREAEPYYLLLPRVSYLTLVTDKVKKHFQKVMRQEDISEIWFEYEGTPLKWHYPIGLLFDLLASSSALPWNITVHFKSFPEKDLLHCPSKDAIEAHFMSCMKEADALKHKSQVINEMQKKDHKQLWMGLQNDRFDQFWAINRKLMEYPAEENGFRYIPFRIYQTTTERPFIQKLFRPVAADGQLHTLGDLLKEVCPSAIDPEDGEKKNQVMIHGIEPMLETPLQWLSEHLSYPDNFLHISIIPQPTD
partner: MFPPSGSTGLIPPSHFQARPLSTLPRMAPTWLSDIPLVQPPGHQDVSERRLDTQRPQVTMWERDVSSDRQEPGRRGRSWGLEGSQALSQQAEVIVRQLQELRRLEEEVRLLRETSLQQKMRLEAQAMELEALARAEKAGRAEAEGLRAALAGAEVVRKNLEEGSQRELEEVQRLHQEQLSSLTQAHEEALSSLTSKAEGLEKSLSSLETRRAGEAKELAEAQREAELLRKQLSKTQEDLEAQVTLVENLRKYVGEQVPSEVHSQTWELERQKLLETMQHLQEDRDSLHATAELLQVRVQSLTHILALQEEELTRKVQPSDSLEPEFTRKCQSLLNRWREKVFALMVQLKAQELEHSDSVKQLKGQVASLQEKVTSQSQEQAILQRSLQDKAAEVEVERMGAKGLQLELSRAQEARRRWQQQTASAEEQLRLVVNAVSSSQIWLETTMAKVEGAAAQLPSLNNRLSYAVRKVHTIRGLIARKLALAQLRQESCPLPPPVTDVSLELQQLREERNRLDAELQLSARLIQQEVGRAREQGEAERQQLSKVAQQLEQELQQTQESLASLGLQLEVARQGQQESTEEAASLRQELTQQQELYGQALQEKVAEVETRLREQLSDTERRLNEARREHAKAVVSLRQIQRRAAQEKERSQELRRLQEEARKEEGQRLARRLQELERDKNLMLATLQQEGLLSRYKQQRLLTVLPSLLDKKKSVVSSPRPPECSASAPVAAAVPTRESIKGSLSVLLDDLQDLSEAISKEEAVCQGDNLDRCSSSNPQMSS
B7: Ribonuclease P protein subunit p25-like protein (Homo sapiens), Q8N5L8 (parent)
chain: MEHYRKAGSVELPAPSPMPQLPPDTLEMRVRDGSKIRNLLGLALGRLEGGSARHVVFSGSGRAAGKAVSCAEIVKRRVPGLHQLTKLRFLQTEDSWVPASPDTGLDPLTVRRHVPAVWVLLSRDPLDPNECGYQPPGAPPGLGSMPSSSCGPRSRRRARDTRS
partner: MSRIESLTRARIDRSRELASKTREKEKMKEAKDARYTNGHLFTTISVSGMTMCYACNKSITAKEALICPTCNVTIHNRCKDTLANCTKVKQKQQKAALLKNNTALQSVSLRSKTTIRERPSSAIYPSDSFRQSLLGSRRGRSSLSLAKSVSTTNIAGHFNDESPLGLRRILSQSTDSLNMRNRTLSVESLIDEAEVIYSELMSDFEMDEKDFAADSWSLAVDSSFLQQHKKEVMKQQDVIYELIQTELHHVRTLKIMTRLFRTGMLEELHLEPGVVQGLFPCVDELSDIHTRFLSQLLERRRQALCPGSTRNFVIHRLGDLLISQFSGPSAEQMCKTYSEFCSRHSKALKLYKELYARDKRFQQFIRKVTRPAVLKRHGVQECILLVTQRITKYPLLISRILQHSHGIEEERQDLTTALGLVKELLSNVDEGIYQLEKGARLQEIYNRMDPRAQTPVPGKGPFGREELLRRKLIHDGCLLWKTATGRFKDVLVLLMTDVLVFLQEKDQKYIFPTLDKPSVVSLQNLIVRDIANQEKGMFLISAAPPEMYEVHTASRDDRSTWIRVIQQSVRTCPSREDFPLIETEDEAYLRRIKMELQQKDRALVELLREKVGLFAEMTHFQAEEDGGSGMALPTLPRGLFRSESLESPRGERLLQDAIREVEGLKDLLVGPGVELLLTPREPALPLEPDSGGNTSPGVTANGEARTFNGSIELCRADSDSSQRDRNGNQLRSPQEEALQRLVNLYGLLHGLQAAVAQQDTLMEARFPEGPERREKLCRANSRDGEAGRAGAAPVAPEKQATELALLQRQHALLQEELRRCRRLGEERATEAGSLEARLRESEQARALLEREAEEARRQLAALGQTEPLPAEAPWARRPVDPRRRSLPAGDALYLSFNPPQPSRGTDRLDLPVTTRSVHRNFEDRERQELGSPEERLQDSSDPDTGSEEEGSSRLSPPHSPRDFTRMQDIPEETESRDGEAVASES
B8: Nuclear RNA export factor 3 (Homo sapiens), Q9H4D5 (parent)
chain: MSLPSGHTTGHTDQVVQRRARCWDIYQRRFSSRSEPVNPGMHSSSHQQQDGDAAMHGAHMDSPVRYTPYTISPYNRKGSFRKQDQTHVNMEREQKPPERRMEGNMPDGTLGSWFKITVPFGIKYNEKWLLNLIQNECSVPFVPVEFHYENMHASFFVENASIAYALKNVSGKIWDEDNEKISIFVNPAGIPHFVHRELKSEKVEQIKLAMNQQCDVSQEALDIQRLPFYPDMVNRDTKMASNPRKCMAASLDVHEENIPTVMSAGEMDKWKGIEPGEKCADRSPVCTTFSDTSSNINSILELFPKLLCLDGQQSPRATLCGTEAHKRLPTCKGSFFGSEMLKNLVLQFLQQYYLIYDSGDRQGLLSAYHDEACFSLSIPFNPEDSAPSSFCKFFKDSRNIKILKDPYLRGELLKHTKLDIVDSLSALPKTQHDLSSFLVDMWYQTEWMLCFSVNGVFKEVEGQSQGSVLAFTRTFIATPGSSSSLCIVNDKLFVRDTSHQGTQSALFTLVPTAFSSSVPAFSQEQQKMLPS
partner: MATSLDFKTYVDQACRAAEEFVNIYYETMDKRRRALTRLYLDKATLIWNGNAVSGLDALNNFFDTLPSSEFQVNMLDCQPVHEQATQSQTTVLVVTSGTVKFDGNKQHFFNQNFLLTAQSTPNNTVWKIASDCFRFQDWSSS
B9: PiggyBac transposable element-derived protein 1 (Homo sapiens), Q96JS3 (parent)
chain: MYEALPGPAPENEDGLVKVKEEDPTWEQVCNSQEGSSHTQEICRLRFRHFCYQEAHGPQEALAQLRELCHQWLRPEMHTKEQIMELLVLEQFLTILPKELQPCVKTYPLESGEEAVTVLENLETGSGDTGQQASVYIQGQDMHPMVAEYQGVSLECQSLQLLPGITTLKCEPPQRPQGNPQEVSGPVPHGSAHLQEKNPRDKAVVPVFNPVRSQTLVKTEEETAQAVAAEKWSHLSLTRRNLCGNSAQETVMSLSPMTEEIVTKDRLFKAKQETSEEMEQSGEASGKPNRECAPQIPCSTPIATERTVAHLNTLKDRHPGDLWARMHISSLEYAAGDITRKGRKKDKARVSELLQGLSFSGDSDVEKDNEPEIQPAQKKLKVSCFPEKSWTKRDIKPNFPSWSALDSGLLNLKSEKLNPVELFELFFDDETFNLIVNETNNYASQKNVSLEVTVQEMRCVFGVLLLSGFMRHPRREMYWEVSDTDQNLVRDAIRRDRFELIFSNLHFADNGHLDQKDKFTKLRPLIKQMNKNFLLYAPLEEYYCFDKSMCECFDSDQFLNGKPIRIGYKIWCGTTTQGYLVWFEPYQEESTMKVDEDPDLGLGGNLVMNFADVLLERGQYPYHLCFDSFFTSVKLLSALKKKGVRATGTIRENRTEKCPLMNVEHMKKMKRGYFDFRIEENNEIILCRWYGDGIISLCSNAVGIEPVNEVSCCDADNEEIPQISQPSIVKVYDECKEGVAKMDQIISKYRVRIRSKKWYSILVSYMIDVAMNNAWQLHRACNPGASLDPLDFRRFVAHFYLEHNAHLSD
partner: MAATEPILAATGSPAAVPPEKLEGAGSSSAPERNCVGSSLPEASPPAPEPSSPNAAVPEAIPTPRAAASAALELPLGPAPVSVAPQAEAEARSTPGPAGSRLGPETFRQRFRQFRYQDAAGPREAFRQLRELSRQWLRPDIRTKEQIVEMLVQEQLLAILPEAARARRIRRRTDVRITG

Variants of: B1
Settings: with fril_human FTL

| Variant | effect of a mutation on the interaction |
| --- | --- |
| P49H | with no effect |
| R147C | with no effect |

Variants of: B1
Settings: with if4e2_human EIF4E2, O60573
if4e2_human EIF4E2, O60573, sequence (O60573 whole entry): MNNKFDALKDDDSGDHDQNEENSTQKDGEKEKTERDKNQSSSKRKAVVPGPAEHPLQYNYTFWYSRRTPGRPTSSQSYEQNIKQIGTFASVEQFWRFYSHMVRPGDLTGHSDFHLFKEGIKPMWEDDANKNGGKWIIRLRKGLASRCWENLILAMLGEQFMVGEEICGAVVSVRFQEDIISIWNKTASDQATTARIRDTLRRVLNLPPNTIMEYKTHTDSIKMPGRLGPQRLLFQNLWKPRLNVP

| Variant | effect of a mutation on the interaction |
| --- | --- |
| P49H | with no effect |
| A181T | disrupting interaction strength |

Variants of: B1
Settings: with mlh1_human MLH1, P40692
mlh1_human MLH1, P40692, sequence (P40692 whole entry): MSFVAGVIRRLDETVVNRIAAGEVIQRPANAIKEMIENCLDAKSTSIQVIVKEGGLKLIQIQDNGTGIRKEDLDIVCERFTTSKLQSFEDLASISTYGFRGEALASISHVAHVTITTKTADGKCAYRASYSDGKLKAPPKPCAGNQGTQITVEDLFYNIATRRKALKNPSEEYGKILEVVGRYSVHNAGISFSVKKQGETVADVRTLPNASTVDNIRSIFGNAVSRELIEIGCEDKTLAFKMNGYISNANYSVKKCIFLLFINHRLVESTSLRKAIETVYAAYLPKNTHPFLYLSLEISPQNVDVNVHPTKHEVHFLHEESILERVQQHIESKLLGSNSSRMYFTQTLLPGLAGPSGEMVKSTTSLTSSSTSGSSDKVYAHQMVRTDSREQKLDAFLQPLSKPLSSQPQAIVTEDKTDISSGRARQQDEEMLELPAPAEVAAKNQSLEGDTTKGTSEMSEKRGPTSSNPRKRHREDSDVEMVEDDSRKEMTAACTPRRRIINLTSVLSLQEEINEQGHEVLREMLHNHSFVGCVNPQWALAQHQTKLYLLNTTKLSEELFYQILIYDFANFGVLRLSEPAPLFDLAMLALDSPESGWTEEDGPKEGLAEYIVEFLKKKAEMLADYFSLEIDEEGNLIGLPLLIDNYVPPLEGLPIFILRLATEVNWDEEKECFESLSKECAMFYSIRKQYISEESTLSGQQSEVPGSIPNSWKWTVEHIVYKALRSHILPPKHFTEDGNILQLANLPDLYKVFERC

| Variant | effect of a mutation on the interaction |
| --- | --- |
| P49H | with no effect |
| A181T | disrupting interaction strength |

Variants of: B1
Settings: with cc28a_human CCDC28A

| Variant | effect of a mutation on the interaction |
| --- | --- |
| A181T | disrupting interaction strength |

Variants of: B2
Settings: with prp31_human PRPF31, Q8WWY3
prp31_human PRPF31, Q8WWY3, sequence (Q8WWY3 whole entry): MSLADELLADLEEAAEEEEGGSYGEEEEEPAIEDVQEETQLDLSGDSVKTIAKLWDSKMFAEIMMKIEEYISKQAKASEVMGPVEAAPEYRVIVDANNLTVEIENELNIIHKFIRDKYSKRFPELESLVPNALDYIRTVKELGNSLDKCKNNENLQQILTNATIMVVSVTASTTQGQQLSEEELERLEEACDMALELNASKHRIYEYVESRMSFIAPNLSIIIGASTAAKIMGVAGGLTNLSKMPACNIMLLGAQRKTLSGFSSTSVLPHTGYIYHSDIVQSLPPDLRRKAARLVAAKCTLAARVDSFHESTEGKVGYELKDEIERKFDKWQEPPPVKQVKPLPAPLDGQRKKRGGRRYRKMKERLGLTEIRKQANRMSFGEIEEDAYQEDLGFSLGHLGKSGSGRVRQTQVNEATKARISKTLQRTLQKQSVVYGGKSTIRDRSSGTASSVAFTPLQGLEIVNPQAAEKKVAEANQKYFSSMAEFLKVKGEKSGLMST

| Variant | effect of a mutation on the interaction |
| --- | --- |
| N207S | with no effect |

Variants of: B2
Settings: with echp_human EHHADH

| Variant | effect of a mutation on the interaction |
| --- | --- |
| N207S | with no effect |

Variants of: B3
Settings: with rim3a_human RIMBP3, Q9UFD9
rim3a_human RIMBP3, Q9UFD9, sequence (Q9UFD9 whole entry): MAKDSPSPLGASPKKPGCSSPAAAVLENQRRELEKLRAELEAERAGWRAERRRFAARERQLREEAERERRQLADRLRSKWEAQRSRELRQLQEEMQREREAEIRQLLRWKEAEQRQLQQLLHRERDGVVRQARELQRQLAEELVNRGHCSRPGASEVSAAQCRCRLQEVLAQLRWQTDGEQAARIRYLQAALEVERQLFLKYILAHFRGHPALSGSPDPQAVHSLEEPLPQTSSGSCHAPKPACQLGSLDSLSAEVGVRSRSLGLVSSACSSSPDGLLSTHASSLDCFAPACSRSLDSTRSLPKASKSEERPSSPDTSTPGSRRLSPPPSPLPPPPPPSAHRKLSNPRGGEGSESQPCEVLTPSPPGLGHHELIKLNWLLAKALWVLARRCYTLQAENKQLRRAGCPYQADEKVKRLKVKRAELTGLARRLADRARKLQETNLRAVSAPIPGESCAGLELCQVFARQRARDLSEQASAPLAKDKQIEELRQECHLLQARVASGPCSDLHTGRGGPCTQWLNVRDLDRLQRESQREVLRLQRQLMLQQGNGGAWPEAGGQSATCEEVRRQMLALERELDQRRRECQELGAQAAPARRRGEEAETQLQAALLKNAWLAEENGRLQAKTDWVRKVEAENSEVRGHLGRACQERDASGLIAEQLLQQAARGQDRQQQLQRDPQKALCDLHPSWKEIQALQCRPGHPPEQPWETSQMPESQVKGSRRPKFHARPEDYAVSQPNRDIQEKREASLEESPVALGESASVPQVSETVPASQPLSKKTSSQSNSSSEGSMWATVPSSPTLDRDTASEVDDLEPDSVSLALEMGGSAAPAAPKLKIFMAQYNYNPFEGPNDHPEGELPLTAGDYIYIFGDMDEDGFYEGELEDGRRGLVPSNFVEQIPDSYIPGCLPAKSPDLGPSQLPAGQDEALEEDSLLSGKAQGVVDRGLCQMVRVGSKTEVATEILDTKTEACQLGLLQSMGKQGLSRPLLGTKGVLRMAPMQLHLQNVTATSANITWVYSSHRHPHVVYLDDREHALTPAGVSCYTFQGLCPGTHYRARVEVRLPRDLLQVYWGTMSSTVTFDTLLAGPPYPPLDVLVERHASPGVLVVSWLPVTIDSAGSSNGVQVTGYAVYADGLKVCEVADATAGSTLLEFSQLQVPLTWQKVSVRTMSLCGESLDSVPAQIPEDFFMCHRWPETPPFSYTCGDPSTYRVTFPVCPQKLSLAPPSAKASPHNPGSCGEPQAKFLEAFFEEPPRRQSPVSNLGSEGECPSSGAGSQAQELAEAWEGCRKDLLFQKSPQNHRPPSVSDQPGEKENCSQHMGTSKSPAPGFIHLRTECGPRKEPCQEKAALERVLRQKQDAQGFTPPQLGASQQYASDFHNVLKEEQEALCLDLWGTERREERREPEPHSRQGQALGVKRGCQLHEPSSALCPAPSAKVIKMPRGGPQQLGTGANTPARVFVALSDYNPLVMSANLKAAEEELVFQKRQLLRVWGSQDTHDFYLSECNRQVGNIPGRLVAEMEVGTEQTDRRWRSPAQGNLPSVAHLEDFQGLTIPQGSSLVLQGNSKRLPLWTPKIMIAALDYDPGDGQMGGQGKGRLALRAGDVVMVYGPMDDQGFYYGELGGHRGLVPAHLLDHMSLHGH

| Variant | effect of a mutation on the interaction |
| --- | --- |
| D6E | with no effect |

Variants of: B4
Settings: with if4e_human EIF4E

| Variant | effect of a mutation on the interaction |
| --- | --- |
| G6D | with no effect |

Variants of: B5
Settings: with mdfi_human MDFI

| Variant | effect of a mutation on the interaction |
| --- | --- |
| F76S | disrupting interaction strength |
| S65W | with no effect |
| H167D | disrupting interaction strength |

Variants of: B6
Settings: with cchcr_human CCHCR1, Q8TD31

| Variant | effect of a mutation on the interaction |
| --- | --- |
| K58M | with no effect |

Variants of: B7
Settings: with arhg2_human ARHGEF2, Q92974

| Variant | effect of a mutation on the interaction |
| --- | --- |
| D127N | with no effect |
| R155Q | with no effect |

Variants of: B8
Settings: with nxt2_human NXT2, Q9NPJ8

| Variant | effect of a mutation on the interaction |
| --- | --- |
| R409W | disrupting interaction strength |

Variants of: B8
Settings: with nxt2_human NXT2, Q9NPJ8
Remark: another data set of the same source

| Variant | effect of a mutation on the interaction |
| --- | --- |
| T9K | with no effect |

Variants of: B9
Settings: with scnd1_human SCAND1, P57086

| effect of a mutation on the interaction | Variant |
| --- | --- |
| with no effect | N398S |
| with no effect | P256L |

The remaining lines, values behind:

| Variant | effect of a mutation on the interaction |
| --- | --- |
| I678V | with no effect |
| G244E | with no effect |
| Q248E | with no effect |
